Test results as given in article PMC7275066.

Target: HPV52L1-C428A (human papillomavirus type 52 (HPV52))
Assay: SEC; HPSEC on TSK Gel G 5000 pwxl, 10 mM PB pH 6.5, 0.5 M NaCl; serial molar ratios of C175A and C428A mutants; chVLP fraction analysed by SDS-PAGE and western blotting; pentamers to VLP

Substance HPV16L1-C175A (domain or fragment) has a stoichiometry N (C175A:C428A molar ratio) of 1.
